Experimental data as given in the supplement of paper PMC9732359.
± gives the uncertainty stated by the source.

Test: protein stability index of a GFP-peptide fusion (yeast GPS) (PSI 1-4); higher = more stable; sorted into four equal gates, so the index is relative within each strain
In short: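 Tiled 17-residue peptides from yeast proteins were fused downstream of GFP on a plasmid that also expresses Cherry, and the pooled library was carried in yeast. Mid-log cultures grown in leucine-free medium were sorted into four equal gates by GFP/Cherry fluorescence ratio. Plasmids from each gate were PCR-amplified and Illumina-sequenced, and reads were assigned to strains by barcodes. Each peptide's protein stability index is the sum, over gates, of the gate's read frequency multiplied by its gate number.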

Sequence	protein stability index (doa10∆)	protein stability index (pdr5∆)	protein stability index (san1∆)	protein stability index (ubr1∆)
NLLLRELNVEKLNTFNL [SRP72]	2.71 ± 0.15	3.41 ± 0.2	2.95 ± 0.099	2.95 ± 0.13
LIVIDVVEGVTFVVEQL [SNU114]	1.57 ± 0.044	1.92 ± 0.061	2.56 ± 0.082	2.92 ± 0.04
GRLASTIAKQVLNGQKI [RPL16B]	3.42 ± 0.28	2.69 ± 0.11		2.58 ± 0.13
LQQQTPVTIWLFEQIGI [SME1]	1.66 ± 0.045	1.87 ± 0.041	1.64 ± 0.072	2 ± 0.042
YFFYASRPEYSCTFWSD [YJL039C/NUP192]	1.22 ± 0.069	1.52 ± 0.084	1.31 ± 0.14	1.62 ± 0.054
VQVKVLGKYEFSKILPA [ESC2]	2.03 ± 0.15	1.99 ± 0.14		1.83 ± 0.19
HGINLQNKKNLKWVAVV [SSN2]	2.98 ± 0.066	3.11 ± 0.051	3.05 ± 0.057	3.23 ± 0.057
IEEKLSSFSKKTLTEEV [YIL149C/MLP2]	2.92 ± 0.054	3.07 ± 0.052	3.03 ± 0.052	3 ± 0.048
PSHEKLKESYSQKHNGR [CDC53]	3.23 ± 0.13	3.13 ± 0.071	2.94 ± 0.047	3.04 ± 0.08
SQIFDQLKDMQTIEMIT [SRB8]	2.78 ± 0.058	3.11 ± 0.049	2.72 ± 0.049	2.85 ± 0.043
KMLKIWTMAFRTMDDIK [ECM29]	2.03 ± 0.11	1.76 ± 0.1	2.06 ± 0.12	1.96 ± 0.075
TAETNNKVHETSSKSSS [YDL088C/ASM4]	2.86 ± 0.039	2.96 ± 0.045	2.84 ± 0.039	2.89 ± 0.032
LKTFHFAGVASMNVTLG [RPO31]	2.17 ± 0.081	2.25 ± 0.048	2.34 ± 0.093	1.98 ± 0.055
SLDDNSTSLEKQINSIK [YJL041W/NSP1]	2.78 ± 0.079	3.08 ± 0.065	2.97 ± 0.045	2.96 ± 0.048
RKCQFRTPDSISVNSSS [POP1]	2.44 ± 0.074	2.52 ± 0.073	2.64 ± 0.056	2.37 ± 0.062
IAEGKSKQDASPKPYAV [RPL8B]	3.02 ± 0.077	3.38 ± 0.063	3.12 ± 0.06	3.23 ± 0.049
QEHTIFTQLKKNIPKTR [SNU114]	1.8 ± 0.045	2.16 ± 0.05	2.64 ± 0.049	1.62 ± 0.037
VLDSMTKEELESDGRMF [SRP54]	3.02 ± 0.088	3.2 ± 0.089	3.37 ± 0.051	2.27 ± 0.059
FKAIHGSQLRLSEWEEY [YCS4]	1.27 ± 0.058	1.58 ± 0.05	2 ± 0.12	1.29 ± 0.029
LESYLIVHHPYQSLKQI [SSN8]	2.33 ± 0.052	2.46 ± 0.059	2.29 ± 0.053	2.38 ± 0.044
LYYDEDINVESLTQSVC [PUP2]	2.36 ± 0.061	2.25 ± 0.052	2.46 ± 0.064	2.21 ± 0.031
EIKVGKQRFQGCNNLIK [ARP9]	2.76 ± 0.16	3.06 ± 0.13	3.39 ± 0.092	3.34 ± 0.12
LKVTKKHGAKKVAKRTK [RPL27A]	3.37 ± 0.13	3.54 ± 0.17	3.39 ± 0.11	3.18 ± 0.13
KKQPSILVGGTLKDYQI [SNF2]	2.31 ± 0.11	2.71 ± 0.099	2.35 ± 0.11	2.47 ± 0.083
LKQEGAANKTVVVVGTV [RPL18A]	2.94 ± 0.27	3.31 ± 0.11	2.51 ± 0.11	3.46 ± 0.12
EVNSKKKNKRALPNIEN [BRR2]	2.9 ± 0.14	3.2 ± 0.096	3.35 ± 0.088	3.09 ± 0.068

Sequence	protein stability index (doa10∆)	protein stability index (pdr5∆)	protein stability index (san1∆)	protein stability index (ubr1∆)
LRQKHEFLEDFDLVRNI [SMC2]	3.1 ± 0.11	3.05 ± 0.098	3.14 ± 0.063	3.34 ± 0.099
PKVPVSAAATPSLNKTI [GAL11]	2.5 ± 0.039	2.77 ± 0.033	2.67 ± 0.035	2.63 ± 0.036
KKVNYKVTSYDITGDIR [ISW2]	2.72 ± 0.058	2.51 ± 0.055	2.83 ± 0.068	2.67 ± 0.051
DDLALPYQHPPNIFPNL [ITC1]	3.37 ± 0.097	3.43 ± 0.12	3.43 ± 0.074	3.21 ± 0.046
VPPVENFPVRQWSIEIV [TAF14]	3.15 ± 0.064	2.55 ± 0.053	3.2 ± 0.042	2.82 ± 0.051
ELSNELSRLSTASKIIV [MED1]	2.68 ± 0.087	2.55 ± 0.089	2.72 ± 0.097	3.26 ± 0.077
KLEKLRNEKRMFLEFQS [SMC2]	2.88 ± 0.13	3.3 ± 0.08	3.15 ± 0.12	3.49 ± 0.092
QEFFFHAMGGREGLIDT [RPO21]	2.54 ± 0.081	2.17 ± 0.08	2.39 ± 0.087	2.08 ± 0.063
EGGKNQAELLQLAVKII [YJL039C/NUP192]	2.87 ± 0.12	3.28 ± 0.081	3.3 ± 0.2	2.72 ± 0.11
SQVFGVARIYASFNDTF [RPS14A]	2.05 ± 0.062	1.81 ± 0.045	2.11 ± 0.073	2.38 ± 0.056
VNIEPFNIDDEIKHGVF [LIN1]	3.48 ± 0.15	3 ± 0.21	3.45 ± 0.14	3.48 ± 0.077
LMTFNAETKSYDSRGVG [YLR335W/NUP2]	2.19 ± 0.063	2.65 ± 0.059	2.74 ± 0.054	2.71 ± 0.048
DGSKMLKRADYTAVDTA [RPN14]	3.58 ± 0.12	3.32 ± 0.11	3.53 ± 0.036	3.26 ± 0.079
TDLGKDIPFFPSSEKPN [SSN2]	2.7 ± 0.059	2.9 ± 0.077	2.57 ± 0.11	3.07 ± 0.037
NVTIAQGGVLPNIHQNL [HTA1]	1.65 ± 0.05	1.48 ± 0.043	1.36 ± 0.066	1.46 ± 0.034
FTLKQWNRLTISVTDTE [COR1]	1.32 ± 0.049	1.22 ± 0.04	1.14 ± 0.072	1.12 ± 0.047
MIVYYKDAISFIKEIHK [YCS4]	2.19 ± 0.092	1.84 ± 0.069	2.57 ± 0.11	2.26 ± 0.072
ILEDTATMSVFLQRIDF [RRI2]	2.78 ± 0.059	2.53 ± 0.05	2.76 ± 0.056	2.59 ± 0.042
LDPYERAIYSYLSGAIP [YDL116W/NUP84]	2.83 ± 0.12	3.11 ± 0.082	3.13 ± 0.098	3.11 ± 0.13
EPTVRIQAVFCLTKFQD [YCG1]	2.27 ± 0.05	2.53 ± 0.046	2.28 ± 0.063	2.78 ± 0.047
IESQNLDLIPHSSSVFK [SRB4]	2.46 ± 0.059	2.9 ± 0.053	2.55 ± 0.067	2.73 ± 0.038
DVAFADGGKTLRACAAN [YMR129W/POM152]	1.54 ± 0.18	2.6 ± 0.19		2.36 ± 0.1
AKLNYKNLNPASSSPSS [ECM29]	3.25 ± 0.071	3.06 ± 0.08	2.79 ± 0.11	3.04 ± 0.051
NYGIVELDPECQLQNSD [RRP43]	2.96 ± 0.075	3.01 ± 0.062	2.93 ± 0.054	3.02 ± 0.078
LVHGIFGAKMSRTLILS [SIN4]	1.8 ± 0.063	1.41 ± 0.044	1.36 ± 0.088	1.65 ± 0.039
QGRRNSRNFSTRDEETT [SIR4]	3.04 ± 0.064	3.11 ± 0.055	3.12 ± 0.041	2.98 ± 0.041
